Our source for the catalytic efficiency kcat/Km of XPF(S312A)–ERCC1 on a stem–loop DNA substrate, real-time fluorescence incision assay (wild type: 1.73), catalytic efficiency kcat/Km of XPF–ERCC1–SLX4^NTD on a stem–loop DNA substrate, real-time fluorescence incision assay (XPF–ERCC1 alone: 1.73) and catalytic efficiency kcat/Km of XPF(323–326 Δ)–ERCC1–SLX4^NTD on a stem–loop DNA substrate, real-time fluorescence incision assay values is publication PMC7048804.

One test concerns the target ERCC1 (human) (UniProt P07992).
The target in test [1] is XPF–ERCC1 complex (human) (UniProt Q92889).
Test [2] deals with XPF–ERCC1 mutant 323–326Δ^XPF (human) (UniProt Q92889).

UniProt P07992, sequence (P07992 other isoform, or with tags, fused parts or gaps): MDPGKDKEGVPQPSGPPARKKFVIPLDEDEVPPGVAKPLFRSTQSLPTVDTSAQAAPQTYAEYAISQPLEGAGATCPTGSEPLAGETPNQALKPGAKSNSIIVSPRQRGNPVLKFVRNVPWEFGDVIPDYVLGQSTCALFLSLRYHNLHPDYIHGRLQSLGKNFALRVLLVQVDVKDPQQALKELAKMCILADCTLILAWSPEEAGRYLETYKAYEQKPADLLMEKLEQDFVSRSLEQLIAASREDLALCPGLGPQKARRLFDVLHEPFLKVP

B1: XPF S312A (enzyme)
chain: MESGQPARRIAMAPLLEYERQLVLELLDTDGLVVCARGLGADRLLYHFLQLHCHPACLVLVLNTQPAEEEYFINQLKIEGVEHLPRRVTNEITSNSRYEVYTQGGVIFATSRILVVDFLTDRIPSDLITGILVYRAHRIIESCQEAFILRLFRQKNKRGFIKAFTDNAVAFDTGFCHVERVMRNLFVRKLYLWPRFHVAVNSFLEQHKPEVVEIHVSMTPTMLAIQTAILDILNACLKELKCHNPSLEVEDLSLENAIGKPFDKTIRHYLDPLWHQLGAKTKSLVQDLKILRTLLQYLSQYDCVTFLNLLEALRATEKAFGQNSGWLFLDSSTSMFINARARVYHLPDAKMSKKEKISEKMEIKEGEETKKELVLESNPKWEALTEVLKEIEAENKESEALGGPGQVLICASDDRTCSQLRDYITLGAEAFLLRLYRKTFEKDSKAEEVWMKFRKEDSSKRIRKSHKRPKDPQNKERASTKERTLKKKKRKLTLTQMVGKPEELEEEGDVEEGYRREISSSPESCPEEIKHEEFDVNLSSDAAFGILKEPLTIIHPLLGCSDPYALTRVLHEVEPRYVVLYDAELTFVRQLEIYRASRPGKPLRVYFLIYGGSTEEQRYLTALRKEKEAFEKLIREKASMVVPEEREGRDETNLDLVRGTASADVSTDTRKAGGQEQNGTQQSIVVDMREFRSELPSLIHRRGIDIEPVTLEVGDYILTPEMCVERKSISDLIGSLNNGRLYSQCISMSRYYKRPVLLIEFDPSKPFSLTSRGALFQEISSNDISSKLTLLTLHFPRLRILWCPSPHATAELFEELKQSKPQPDAATALAITADSETLPESEKYNPGPQDFLLKMPGVNAKNCRSLMHHVKNIAELAALSQDELTSILGNAANAKQLYDFIHTSFAEVVSKGKGKK
In the test with ERCC1 (human), B1 had a catalytic efficiency kcat/Km of XPF(S312A)–ERCC1 on a stem–loop DNA substrate, real-time fluorescence incision assay (wild type: 1.73) of 4.42e+07 M⁻¹ s⁻¹.

B2: SLX4^NTD (residues 1–758) (domain or fragment)
chain: MKLSVNEAQLGFYLGSLSHLSACPGIDPRSSEDQPESLKTGQMMDESDEDFKELCASFFQRVKKHGIKEVSGERKTQKAASNGTQIRSKLKRTKQTATKTKTLQGPAEKKPPSGSQAPRTKKQRVTKWQASEPAHSVNGEGGVLASAPDPPVLRETAQNTQTGNQQEPSPNLSREKTRENVPNSDSQPPPSCLTTAVPSPSKPRTAQLVLQRMQQFKRADPERLRHASEECSLEAAREENVPKDPQEEMMAGNVYGLGPPAPESDAAVALTLQQEFARVGASAHDDSLEEKGLFFCQICQKNLSAMNVTRREQHVNRCLDEAEKTLRPSVPQIPECPICGKPFLTLKSRTSHLKQCAVKMEVGPQLLLQAVRLQTAQPEGSSSPPMFSFSDHSRGLKRRGPTSKKEPRKRRKVDEAPSEDLLVAMALSRSEMEPGAAVPALRLESAFSERIRPEAENKSRKKKPPVSPPLLLVQDSETTGRQIEDRVALLLSEEVELSSTPPLPASRILKEGWERAGQCPPPPERKQSFLWEGSALTGAWAMEDFYTARLVPPLVPQRPAQGLMQEPVPPLVPPEHSELSERRSPALHGTPTAGCGSRGPSPSASQREHQALQDLVDLAREGLSASPWPGSGGLAGSEGTAGLDVVPGGLPLTGFVVPSQDKHPDRGGRTLLSLGLLVADFGAMVNNPHLSDVQFQTDSGEVLYAHKFVLYARCPLLIQYVNNEGFSAVEDGVLTQRVLLGDVSTEAARTFLHYLYTA
In test [1], B2 displayed a catalytic efficiency kcat/Km of XPF–ERCC1–SLX4^NTD on a stem–loop DNA substrate, real-time fluorescence incision assay (XPF–ERCC1 alone: 1.73) of 1.73e+08 M⁻¹ s⁻¹. This molecule also had a catalytic efficiency kcat/Km of XPF(323–326 Δ)–ERCC1–SLX4^NTD on a stem–loop DNA substrate, real-time fluorescence incision assay in test [2] of 5e+06 M⁻¹ s⁻¹.
